Source: US9259432B1, “Composition and methods for targeted delivery of a therapeutic compound to the brain or spinal cord of a subject for treatment of neurodegenerative diseases” (Parminder J. S. Vig, priority 2011, dated 2016)

Target: T1, S100B (Homo sapiens, UniProt P04271)
T1 construct: purchased Sigma-Aldrich
T1 sequence (P04271 2-92 limits assumed): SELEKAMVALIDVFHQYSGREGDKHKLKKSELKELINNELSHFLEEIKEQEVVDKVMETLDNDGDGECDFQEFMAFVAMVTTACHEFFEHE
Assay: Tryptophan fluorescence quenching binding studies
Protocol: The tryptophan fluorescence of 5.0 μM Synb1-ELP-TRTK, 5.0 μM Synb1-ELP-GGC and 5.0 μM TRTK12 were measured using an Aminco Bowman Series 2 fluorescent spectrophotometer with and Excitation wavelength of 295 nm and an Emission wavelength of 350 nm in 25 mM TrisHCL and 0.1 mM CaCl2 at 12° C. (to avoid aggregation of ELP) or in a solution of containing 25 mM TrisHCL, 0.1 mM CaCl2 and 1 mM EGTA at 12° C. S100B was titrated from 100 nM up to 3.0 μM into the various peptide solutions and changes in tryptophan fluorescence were recorded into an Excel file and graphs produced. A Fluorescence % was plotted against free S100B concentration using GraphPad Prism software. A Fluorescence % was calculated as follows: [(Maximum fluorescence−Observed fluorescence)/(Maximum fluorescence−Minimum Fluorescence)]×100%. Where the maximum fluorescence is the fluorescence of 5.0 μM Synb1-ELP-TRTK or 5.0 μM TRTK12 before titration of S100B and the minimum fluorescence is the fluorescence of 5.0 μM Synb1-ELP-TRTK or 5.0 μM TRTK12 fully saturated with bound S100B. […]
Alterations in the binding affinity of a peptide due to its fusion to ELP have never been studied previously. […] Fluorescent spectroscopy is a sensitive tool used to monitor changes in the local environment of tryptophan residues that occur during a protein-ligand binding event; furthermore, changes in tryptophan fluorescence can be used to calculate binding affinity (Weljie and Vogel, 2000, Bocedi et al., 2004). Previous work has shown that S100B binding reduces tryptophan fluorescence of TRTK12 and like peptides (Ivanenkov et al., 1995). The tryptophan fluorescence of 5.0 μM Synb1-ELP-TRTK and 5.0 μM Synb1-ELP-GGC were measured using a fluorescent spectrophotometer with an Excitation wavelength of 295 nm and an Emission wavelength of 350 nm in 25 mM TrisHCL and 0.1 mM CaCl2 at 12° C. At 295 nm, tryptophan emission spectrum is dominant over the weaker tyrosine and phenylalanine fluorescence (Vivian and Callis, 2001). […] W755 has very little fluorescence at 350 nm which may be due to the 150 neighboring VPGXG repeats of ELP (FIG. 12A). […]

impact on S100B binding affinity compared to the TRTK12 peptide alone: 2 fold
Kd (5.0 μM peptide, 25 mM TrisHCL, 0.1 mM CaCl2, 12° C.): 518 ± 80 nM
effect of S100B titration on tryptophan fluorescence at 350 nm with calcium depleted (25 mM TrisHCL, 0.1 mM CaCl2 and 1 mM EGTA): no effect
Substance: Synb1-ELP-TRTK: thermally responsive S100B inhibitory polypeptide: Synb1 cell penetrating peptide, elastin-like polypeptide (ELP) and TRTK12 peptide fused
